B1: HSET-ΔM (no motor; EGFP-HSET aa 1-304, tail-stalk) (domain or fragment)
chain: MDPQRSPLLEVKGNIELKRPLIKAPSQLPLSGSRLKRRPDQMEDGLEPEKKRTRGLGATTKITTSHPRVPSLTTVPQTQGQTTAQKVSKKTGPRCSTAIATGLKNQKPVPAVPVQKSGTSGVPPMAGGKKPSKRPAWDLKGQLCDLNAELKRCRERTQTLDQENQQLQDQLRDAQQQVKALGTERTTLEGHLAKVQAQAEQGQQELKNLRACVLELEERLSTQEGLVQELQKKQVELQEERRGLMSQLEEKERRLQTSEAALSSSQAEVASLRQETVAQAALLTEREERLHGLEMERRRLHNQL
B2: FL-HSET (full-length kinesin-14 HSET/KIFC1) (natural protein)
chain: MDPQRSPLLEVKGNIELKRPLIKAPSQLPLSGSRLKRRPDQMEDGLEPEKKRTRGLGATTKITTSHPRVPSLTTVPQTQGQTTAQKVSKKTGPRCSTAIATGLKNQKPVPAVPVQKSGTSGVPPMAGGKKPSKRPAWDLKGQLCDLNAELKRCRERTQTLDQENQQLQDQLRDAQQQVKALGTERTTLEGHLAKVQAQAEQGQQELKNLRACVLELEERLSTQEGLVQELQKKQVELQEERRGLMSQLEEKERRLQTSEAALSSSQAEVASLRQETVAQAALLTEREERLHGLEMERRRLHNQLQELKGNIRVFCRVRPVLPGEPTPPPGLLLFPSGPGGPSDPPTRLSLSRSDERRGTLSGAPAPPTRHDFSFDRVFPPGSGQDEVFEEIAMLVQSALDGYPVCIFAYGQTGSGKTFTMEGGPGGDPQLEGLIPRALRHLFSVAQELSGQGWTYSFVASYVEIYNETVRDLLATGTRKGQGGECEIRRAGPGSEELTVTNARYVPVSCEKEVDALLHLARQNRAVARTAQNERSSRSHSVFQLQISGEHSSRGLQCGAPLSLVDLAGSERLDPGLALGPGERERLRETQAINSSLSTLGLVIMALSNKESHVPYRNSKLTYLLQNSLGGSAKMLMFVNISPLEENVSESLNSLRFASKVNQCVIGTAQANRK

Key:
[1] = molecular target: subtilisin-digested microtubules (E-hook removed) (bovine) (UniProt Q6B856); assay: optical trapping, rupture assay
[2] = molecular target: microtubules (bovine tubulin, Taxol-stabilised) (bovine) (UniProt Q6B856); assay: optical trapping, rupture assay
[3] = molecular target: microtubules (bovine tubulin, Taxol-stabilised) (bovine) (UniProt Q6B856); assay: optical trapping, unloaded single molecule bead assay with video tracking

Chain of UniProt Q6B856 (Q6B856 whole entry, looked up): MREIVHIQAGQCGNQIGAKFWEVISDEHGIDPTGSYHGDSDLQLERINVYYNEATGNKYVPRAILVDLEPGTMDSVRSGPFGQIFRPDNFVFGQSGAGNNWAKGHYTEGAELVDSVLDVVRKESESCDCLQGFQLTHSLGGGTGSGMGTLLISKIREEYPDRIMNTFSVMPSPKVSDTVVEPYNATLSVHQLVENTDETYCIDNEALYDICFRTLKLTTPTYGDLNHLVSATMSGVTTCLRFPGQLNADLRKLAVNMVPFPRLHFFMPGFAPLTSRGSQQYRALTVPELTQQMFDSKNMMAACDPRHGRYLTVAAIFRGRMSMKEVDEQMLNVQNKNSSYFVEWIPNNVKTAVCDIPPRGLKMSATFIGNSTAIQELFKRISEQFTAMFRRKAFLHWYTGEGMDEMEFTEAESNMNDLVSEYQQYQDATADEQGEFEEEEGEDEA

Binder	bond lifetime (single Gaussian) [1]	bond lifetime (double Gaussian, first population) [2]	bond lifetime (double Gaussian, second population) [2]	force at rupture (first population) [2]	force at rupture (second population) [2]	lifetime time constant k^-1 (single exponential fit) [2]	percent of beads binding [3]
B1	0.22 s	0.29 s	1 s	2.1 pN	5.6 pN	0.23 s	–
B2	–	–	–	–	–	–	11%

From publication PMC11009875
